Results: US20250262210A1 (TRUSTEES OF COLUMBIA UNIVERSITY IN THE CITY OF NEW YORK, published 2025)

Columns and labels:
Assay in all cases: IP/MS, LZTR1 wild type-FLAG, U87
[1] = molecular target: BRCA2 (human, UniProt P51587 1-3418)
How it was run: (§1)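 Extracted peptides in 3% acetonitrile/0.1% formic acid ran on a 50 cm C18 column into an Orbitrap Fusion, with MaxQuant identification and spectral counting.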

[2] = molecular target: T1, RALGAPB (human, UniProt Q86X10 1-1494, limits assumed)
T1 sequence (looked up): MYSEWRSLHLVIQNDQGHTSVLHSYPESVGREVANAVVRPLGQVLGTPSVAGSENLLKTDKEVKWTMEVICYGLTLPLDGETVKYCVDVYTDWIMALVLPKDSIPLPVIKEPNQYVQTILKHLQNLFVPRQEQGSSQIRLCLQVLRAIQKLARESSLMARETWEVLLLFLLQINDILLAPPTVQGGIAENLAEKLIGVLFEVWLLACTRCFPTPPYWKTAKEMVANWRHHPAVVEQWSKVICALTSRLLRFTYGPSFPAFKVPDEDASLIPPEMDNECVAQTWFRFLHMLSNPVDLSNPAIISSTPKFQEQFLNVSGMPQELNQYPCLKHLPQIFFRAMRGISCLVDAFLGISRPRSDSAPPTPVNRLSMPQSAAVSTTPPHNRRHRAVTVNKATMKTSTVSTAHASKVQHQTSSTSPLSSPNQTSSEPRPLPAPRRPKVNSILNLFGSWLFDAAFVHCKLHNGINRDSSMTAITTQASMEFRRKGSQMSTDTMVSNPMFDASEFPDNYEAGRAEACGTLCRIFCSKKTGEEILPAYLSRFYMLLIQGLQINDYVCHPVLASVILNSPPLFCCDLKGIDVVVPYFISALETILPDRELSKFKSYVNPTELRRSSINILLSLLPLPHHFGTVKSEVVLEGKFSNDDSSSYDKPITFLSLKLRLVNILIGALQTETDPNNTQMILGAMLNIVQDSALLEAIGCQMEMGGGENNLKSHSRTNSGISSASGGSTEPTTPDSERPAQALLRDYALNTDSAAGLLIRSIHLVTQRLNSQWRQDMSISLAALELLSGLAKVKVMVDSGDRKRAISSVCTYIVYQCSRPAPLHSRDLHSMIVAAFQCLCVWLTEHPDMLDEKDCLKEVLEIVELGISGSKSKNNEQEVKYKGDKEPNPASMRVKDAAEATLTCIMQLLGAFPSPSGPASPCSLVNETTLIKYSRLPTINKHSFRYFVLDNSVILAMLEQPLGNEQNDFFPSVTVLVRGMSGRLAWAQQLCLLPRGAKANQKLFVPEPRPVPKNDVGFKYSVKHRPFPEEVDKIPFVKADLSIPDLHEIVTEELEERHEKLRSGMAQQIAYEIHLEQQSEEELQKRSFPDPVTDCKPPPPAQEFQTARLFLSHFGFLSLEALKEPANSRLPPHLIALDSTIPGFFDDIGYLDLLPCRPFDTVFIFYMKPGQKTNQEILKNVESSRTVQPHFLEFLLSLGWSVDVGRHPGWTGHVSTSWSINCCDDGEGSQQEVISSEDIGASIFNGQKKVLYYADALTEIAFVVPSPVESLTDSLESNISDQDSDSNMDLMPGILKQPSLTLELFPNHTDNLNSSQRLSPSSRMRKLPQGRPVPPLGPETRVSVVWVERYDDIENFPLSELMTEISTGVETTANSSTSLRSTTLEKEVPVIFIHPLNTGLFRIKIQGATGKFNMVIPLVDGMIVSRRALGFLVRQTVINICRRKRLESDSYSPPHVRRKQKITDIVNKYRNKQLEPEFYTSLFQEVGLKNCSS
How it was run: as §1

[3] = molecular target: THADA (human, UniProt Q6YHU6 1-1953, limits assumed)
Sequence of THADA (Q6YHU6 whole entry): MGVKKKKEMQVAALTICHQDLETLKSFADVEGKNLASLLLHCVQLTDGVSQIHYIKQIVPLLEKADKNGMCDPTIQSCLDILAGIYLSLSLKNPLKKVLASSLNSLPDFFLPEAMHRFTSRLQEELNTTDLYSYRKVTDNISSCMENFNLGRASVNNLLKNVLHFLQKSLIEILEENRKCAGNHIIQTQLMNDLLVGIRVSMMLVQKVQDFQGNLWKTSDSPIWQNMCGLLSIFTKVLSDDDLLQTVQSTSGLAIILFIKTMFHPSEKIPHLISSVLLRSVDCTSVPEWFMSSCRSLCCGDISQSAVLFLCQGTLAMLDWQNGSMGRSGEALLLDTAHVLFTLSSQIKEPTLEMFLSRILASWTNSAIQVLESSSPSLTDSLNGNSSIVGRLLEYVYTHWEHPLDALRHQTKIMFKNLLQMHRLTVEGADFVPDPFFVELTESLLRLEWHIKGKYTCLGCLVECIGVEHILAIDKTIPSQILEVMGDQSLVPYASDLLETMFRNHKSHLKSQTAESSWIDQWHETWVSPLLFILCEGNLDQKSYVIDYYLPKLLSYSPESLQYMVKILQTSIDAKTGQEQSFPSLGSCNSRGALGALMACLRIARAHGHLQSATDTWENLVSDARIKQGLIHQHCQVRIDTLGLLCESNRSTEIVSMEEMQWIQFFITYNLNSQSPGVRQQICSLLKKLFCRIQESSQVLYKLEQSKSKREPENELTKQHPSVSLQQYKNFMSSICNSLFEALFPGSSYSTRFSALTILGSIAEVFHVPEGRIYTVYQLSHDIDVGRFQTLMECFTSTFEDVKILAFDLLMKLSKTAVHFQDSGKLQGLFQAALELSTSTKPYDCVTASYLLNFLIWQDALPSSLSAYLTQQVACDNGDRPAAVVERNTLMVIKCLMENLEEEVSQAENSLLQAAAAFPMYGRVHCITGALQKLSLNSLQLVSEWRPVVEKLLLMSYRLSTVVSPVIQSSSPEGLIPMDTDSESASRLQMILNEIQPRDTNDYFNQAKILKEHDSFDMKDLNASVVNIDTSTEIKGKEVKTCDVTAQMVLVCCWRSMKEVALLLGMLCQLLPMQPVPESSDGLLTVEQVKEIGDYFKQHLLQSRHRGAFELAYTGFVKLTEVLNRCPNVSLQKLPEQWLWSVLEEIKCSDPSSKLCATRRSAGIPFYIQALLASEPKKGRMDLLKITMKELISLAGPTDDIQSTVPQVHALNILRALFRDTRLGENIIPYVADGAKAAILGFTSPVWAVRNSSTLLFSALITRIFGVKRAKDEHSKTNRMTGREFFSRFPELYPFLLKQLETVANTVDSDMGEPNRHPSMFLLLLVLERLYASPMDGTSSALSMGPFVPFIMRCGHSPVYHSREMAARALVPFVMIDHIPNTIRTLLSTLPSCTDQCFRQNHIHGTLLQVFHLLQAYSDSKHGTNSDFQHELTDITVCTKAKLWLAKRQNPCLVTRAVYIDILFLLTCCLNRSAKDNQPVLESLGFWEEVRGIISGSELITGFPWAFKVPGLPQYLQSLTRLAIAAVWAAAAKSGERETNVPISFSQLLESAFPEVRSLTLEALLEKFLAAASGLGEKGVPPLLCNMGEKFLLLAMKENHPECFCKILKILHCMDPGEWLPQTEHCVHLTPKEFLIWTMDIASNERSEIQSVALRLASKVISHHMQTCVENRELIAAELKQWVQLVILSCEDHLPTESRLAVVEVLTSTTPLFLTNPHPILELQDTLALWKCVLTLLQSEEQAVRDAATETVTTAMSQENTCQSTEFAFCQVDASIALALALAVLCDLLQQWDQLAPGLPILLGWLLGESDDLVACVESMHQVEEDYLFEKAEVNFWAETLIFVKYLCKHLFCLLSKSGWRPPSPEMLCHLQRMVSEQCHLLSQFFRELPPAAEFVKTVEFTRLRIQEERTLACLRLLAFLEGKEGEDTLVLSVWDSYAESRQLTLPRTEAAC
How it was run: as §1

[4] = molecular target: CRYBG1 (human, UniProt Q9Y4K1 1-2131, limits assumed)
Sequence of CRYBG1 (Q9Y4K1 whole entry): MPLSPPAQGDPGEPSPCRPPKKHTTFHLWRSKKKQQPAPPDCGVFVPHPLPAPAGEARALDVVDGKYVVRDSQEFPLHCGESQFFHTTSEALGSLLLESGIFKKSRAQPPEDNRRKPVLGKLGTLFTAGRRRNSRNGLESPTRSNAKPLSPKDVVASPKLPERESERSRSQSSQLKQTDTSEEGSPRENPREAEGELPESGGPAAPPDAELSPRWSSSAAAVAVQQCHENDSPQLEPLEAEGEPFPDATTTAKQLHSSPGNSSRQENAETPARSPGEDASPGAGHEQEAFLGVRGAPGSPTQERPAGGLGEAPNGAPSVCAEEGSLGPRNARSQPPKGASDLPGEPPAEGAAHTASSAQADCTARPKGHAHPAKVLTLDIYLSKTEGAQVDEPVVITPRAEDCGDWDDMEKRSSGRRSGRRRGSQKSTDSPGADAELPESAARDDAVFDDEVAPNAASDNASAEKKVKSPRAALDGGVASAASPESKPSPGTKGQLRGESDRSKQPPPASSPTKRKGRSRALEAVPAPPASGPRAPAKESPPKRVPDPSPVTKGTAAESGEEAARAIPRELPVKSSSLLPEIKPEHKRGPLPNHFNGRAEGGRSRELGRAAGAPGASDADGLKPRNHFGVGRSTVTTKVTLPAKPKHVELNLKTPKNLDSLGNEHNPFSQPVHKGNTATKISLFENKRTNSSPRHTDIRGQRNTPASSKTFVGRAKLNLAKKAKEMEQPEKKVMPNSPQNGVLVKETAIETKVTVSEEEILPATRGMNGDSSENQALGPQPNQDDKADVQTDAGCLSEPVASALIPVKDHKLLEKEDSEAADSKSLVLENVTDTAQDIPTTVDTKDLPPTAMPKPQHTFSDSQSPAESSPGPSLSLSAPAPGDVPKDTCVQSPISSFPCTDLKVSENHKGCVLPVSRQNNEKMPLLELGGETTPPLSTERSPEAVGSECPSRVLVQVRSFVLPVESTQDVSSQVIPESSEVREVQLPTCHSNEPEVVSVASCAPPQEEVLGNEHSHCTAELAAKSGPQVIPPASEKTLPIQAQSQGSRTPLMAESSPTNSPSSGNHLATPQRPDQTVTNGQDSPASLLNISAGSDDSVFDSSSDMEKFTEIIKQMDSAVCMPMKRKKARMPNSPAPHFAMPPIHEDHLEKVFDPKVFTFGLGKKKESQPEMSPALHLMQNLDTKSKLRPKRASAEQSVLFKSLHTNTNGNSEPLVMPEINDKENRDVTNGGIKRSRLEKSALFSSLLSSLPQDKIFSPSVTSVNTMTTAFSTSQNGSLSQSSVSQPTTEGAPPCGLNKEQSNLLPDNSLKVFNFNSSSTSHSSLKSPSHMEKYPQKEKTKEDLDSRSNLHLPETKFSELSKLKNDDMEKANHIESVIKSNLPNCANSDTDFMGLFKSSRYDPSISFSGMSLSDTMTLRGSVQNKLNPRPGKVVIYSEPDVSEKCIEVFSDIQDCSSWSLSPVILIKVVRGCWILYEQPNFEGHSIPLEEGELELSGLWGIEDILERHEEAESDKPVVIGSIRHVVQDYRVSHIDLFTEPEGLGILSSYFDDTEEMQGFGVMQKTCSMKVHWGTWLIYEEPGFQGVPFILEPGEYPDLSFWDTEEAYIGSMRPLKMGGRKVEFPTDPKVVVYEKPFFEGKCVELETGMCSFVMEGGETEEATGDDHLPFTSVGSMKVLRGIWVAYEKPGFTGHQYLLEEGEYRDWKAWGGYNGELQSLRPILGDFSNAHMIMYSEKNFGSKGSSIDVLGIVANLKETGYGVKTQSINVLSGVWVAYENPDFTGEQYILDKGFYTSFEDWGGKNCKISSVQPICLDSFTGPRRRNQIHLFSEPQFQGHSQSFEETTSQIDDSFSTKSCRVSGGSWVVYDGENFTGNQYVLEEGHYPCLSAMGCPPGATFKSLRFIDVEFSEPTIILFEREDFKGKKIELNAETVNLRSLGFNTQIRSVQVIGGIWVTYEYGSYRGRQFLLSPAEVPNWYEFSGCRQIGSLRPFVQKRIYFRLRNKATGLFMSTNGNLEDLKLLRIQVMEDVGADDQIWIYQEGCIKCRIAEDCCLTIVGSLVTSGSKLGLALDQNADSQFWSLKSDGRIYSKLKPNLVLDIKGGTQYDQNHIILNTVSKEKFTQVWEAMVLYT
How it was run: as §1

Measured: binding result

B1: LZTR1-FLAG (other, human, UniProt Q8N653 1-840, looked up)
chain: MAGPGSTGGQIGAAALAGGARSKVAPSVDFDHSCSDSVEYLTLNFGPFETVHRWRRLPPCDEFVGARRSKHTVVAYKDAIYVFGGDNGKTMLNDLLRFDVKDCSWCRAFTTGTPPAPRYHHSAVVYGSSMFVFGGYTGDIYSNSNLKNKNDLFEYKFATGQWTEWKIEGRLPVARSAHGATVYSDKLWIFAGYDGNARLNDMWTIGLQDRELTCWEEVAQSGEIPPSCCNFPVAVCRDKMFVFSGQSGAKITNNLFQFEFKDKTWTRIPTEHLLRGSPPPPQRRYGHTMVAFDRHLYVFGGAADNTLPNELHCYDVDFQTWEVVQPSSDSEVGGAEVPERACASEEVPTLTYEERVGFKKSRDVFGLDFGTTSAKQPTQPASELPSGRLFHAAAVISDAMYIFGGTVDNNIRSGEMYRFQFSCYPKCTLHEDYGRLWESRQFCDVEFVLGEKEECVQGHVAIVTARSRWLRRKITQARERLAQKLEQEAAPVPREAPGVAAGGARPPLLHVAIREAEARPFEVLMQFLYTDKIKYPRKGHVEDVLLIMDVYKLALSFQLCRLEQLCRQYIEASVDLQNVLVVCESAARLQLSQLKEHCLNFVVKESHFNQVIMMKEFERLSSPLIVEIVRRKQQPPPRTPLDQPVDIGTSLIQDMKAYLEGAGAEFCDITLLLDGHPRPAHKAILAARSSYFEAMFRSFMPEDGQVNISIGEMVPSRQAFESMLRYIYYGEVNMPPEDSLYLFAAPYYYGFYNNRLQAYCKQNLEMNVTVQNVLQILEAADKTQALDMKRHCLHIIVHQFTKVSKLPTLRSLSQQLLLDIIDSLASHISDKQCAELGADI
notes: Expressed in HEK 293T, HeLa or U87 cells; used as cell lysate; also called LZTR1 wild type-FLAG; LZTR1 WT; not shown: FLAG tag at the C-terminus
binds: all assays above
